To fix the notation:
B1: Isobutanoyl-[Abu26, Cha27,28,36, Pya(3)31]-PYY(25-36) (peptide)
peptide: Isobutyryl-R[Abu][Cha][Cha]NL[3Pal]TRQR[Cha]-NH2
SMILES: CC[C@H](NC(=O)[C@H](CCCNC(=N)N)NC(=O)C(C)C)C(=O)N[C@@H](CC1CCCCC1)C(=O)N[C@@H](CC1CCCCC1)C(=O)N[C@@H](CC(N)=O)C(=O)N[C@@H](CC(C)C)C(=O)N[C@@H](Cc1cccnc1)C(=O)N[C@H](C(=O)N[C@@H](CCCNC(=N)N)C(=O)N[C@@H](CCC(N)=O)C(=O)N[C@@H](CCCNC(=N)N)C(=O)N[C@@H](CC1CCCCC1)C(N)=O)[C@@H](C)O
B2: Cyclohexanecarbonyl-[Nle26, Cha27,28,36, Aib31]-PYY(25-36) (peptide)
peptide: Cyclohexanecarbonyl-R[Nle][Cha][Cha]NL[Aib]TRQR[Cha]-NH2
SMILES: CCCC[C@H](NC(=O)[C@H](CCCNC(=N)N)NC(=O)C1CCCCC1)C(=O)N[C@@H](CC1CCCCC1)C(=O)N[C@@H](CC1CCCCC1)C(=O)N[C@@H](CC(N)=O)C(=O)N[C@@H](CC(C)C)C(=O)NC(C)(C)C(=O)N[C@H](C(=O)N[C@@H](CCCNC(=N)N)C(=O)N[C@@H](CCC(N)=O)C(=O)N[C@@H](CCCNC(=N)N)C(=O)N[C@@H](CC1CCCCC1)C(N)=O)[C@@H](C)O
B3: Cyclohexanecarbonyl-[Cha27,36, Ala(cPr)28, Aib31]-PYY(25-36) (peptide)
peptide: Cyclohexanecarbonyl-RH[Cha][Ala(cPr)]NL[Aib]TRQR[Cha]-NH2
SMILES: CC(C)C[C@H](NC(=O)[C@H](CC(N)=O)NC(=O)[C@H](CC1CC1)NC(=O)[C@H](CC1CCCCC1)NC(=O)[C@H](Cc1c[nH]cn1)NC(=O)[C@H](CCCNC(=N)N)NC(=O)C1CCCCC1)C(=O)NC(C)(C)C(=O)N[C@H](C(=O)N[C@@H](CCCNC(=N)N)C(=O)N[C@@H](CCC(N)=O)C(=O)N[C@@H](CCCNC(=N)N)C(=O)N[C@@H](CC1CCCCC1)C(N)=O)[C@@H](C)O
B4: 4-Guanidinomethylbenzoyl-[Nle25, Cha27,28,31,36, Arg30]-PYY(25-36) (peptide)
peptide: {4‑guanidinomethylbenzoyl}-[Nle]H[Cha][Cha]NR[Cha]TRQR[Cha]-NH2
SMILES: CCCC[C@H](NC(=O)c1ccc(CNC(=N)N)cc1)C(=O)N[C@@H](Cc1c[nH]cn1)C(=O)N[C@@H](CC1CCCCC1)C(=O)N[C@@H](CC1CCCCC1)C(=O)N[C@@H](CC(N)=O)C(=O)N[C@@H](CCCNC(=N)N)C(=O)N[C@@H](CC1CCCCC1)C(=O)N[C@H](C(=O)N[C@@H](CCCNC(=N)N)C(=O)N[C@@H](CCC(N)=O)C(=O)N[C@@H](CCCNC(=N)N)C(=O)N[C@@H](CC1CCCCC1)C(N)=O)[C@@H](C)O
B5: Benzoyl-[Cha27,36, Ile28,31, Phe(4NH2)30]-PYY(25-36) (peptide)
peptide: Bz-RH[Cha]IN[Phe(4-NH2)]ITRQR[Cha]-NH2
SMILES: CC[C@H](C)[C@H](NC(=O)[C@H](CC1CCCCC1)NC(=O)[C@H](Cc1c[nH]cn1)NC(=O)[C@H](CCCNC(=N)N)NC(=O)c1ccccc1)C(=O)N[C@@H](CC(N)=O)C(=O)N[C@@H](Cc1ccc(N)cc1)C(=O)N[C@H](C(=O)N[C@H](C(=O)N[C@@H](CCCNC(=N)N)C(=O)N[C@@H](CCC(N)=O)C(=O)N[C@@H](CCCNC(=N)N)C(=O)N[C@@H](CC1CCCCC1)C(N)=O)[C@@H](C)O)[C@@H](C)CC
B6: Cyclohexanecarbonyl-[Cha27,36, Ile28,31, Asn(Me)29]-PYY(25-36) (peptide)
peptide: Cyclohexanecarbonyl-RH[Cha]I[Asn(Me)]LITRQR[Cha]-NH2
SMILES: CC[C@H](C)[C@H](NC(=O)[C@H](CC1CCCCC1)NC(=O)[C@H](Cc1c[nH]cn1)NC(=O)[C@H](CCCNC(=N)N)NC(=O)C1CCCCC1)C(=O)N[C@@H](CC(=O)NC)C(=O)N[C@@H](CC(C)C)C(=O)N[C@H](C(=O)N[C@H](C(=O)N[C@@H](CCCNC(=N)N)C(=O)N[C@@H](CCC(N)=O)C(=O)N[C@@H](CCCNC(=N)N)C(=O)N[C@@H](CC1CCCCC1)C(N)=O)[C@@H](C)O)[C@@H](C)CC
B7: Isobutanoyl-[Abu26, Cha27,28,36, Leu(Me)30, Aib31]-PYY(25-36) (peptide)
peptide: Isobutyryl-R[Abu][Cha][Cha]N[tBuAla][Aib]TRQR[Cha]-NH2
SMILES: CC[C@H](NC(=O)[C@H](CCCNC(=N)N)NC(=O)C(C)C)C(=O)N[C@@H](CC1CCCCC1)C(=O)N[C@@H](CC1CCCCC1)C(=O)N[C@@H](CC(N)=O)C(=O)N[C@@H](CC(C)(C)C)C(=O)NC(C)(C)C(=O)N[C@H](C(=O)N[C@@H](CCCNC(=N)N)C(=O)N[C@@H](CCC(N)=O)C(=O)N[C@@H](CCCNC(=N)N)C(=O)N[C@@H](CC1CCCCC1)C(N)=O)[C@@H](C)O
B8: Isobutanoyl-[Abu26, Cha27,36, Pya(4)28, Aib31]-PYY(25-36) (peptide)
peptide: Isobutyryl-R[Abu][Cha][4Pal]NL[Aib]TRQR[Cha]-NH2
SMILES: CC[C@H](NC(=O)[C@H](CCCNC(=N)N)NC(=O)C(C)C)C(=O)N[C@@H](CC1CCCCC1)C(=O)N[C@@H](Cc1ccncc1)C(=O)N[C@@H](CC(N)=O)C(=O)N[C@@H](CC(C)C)C(=O)NC(C)(C)C(=O)N[C@H](C(=O)N[C@@H](CCCNC(=N)N)C(=O)N[C@@H](CCC(N)=O)C(=O)N[C@@H](CCCNC(=N)N)C(=O)N[C@@H](CC1CCCCC1)C(N)=O)[C@@H](C)O
B9: Isobutanoyl-[Abu26, Cha27,28,36, Ala(cPr)30, Aib31]-PYY(25-36) (peptide)
peptide: Isobutyryl-R[Abu][Cha][Cha]N[Ala(cPr)][Aib]TRQR[Cha]-NH2
SMILES: CC[C@H](NC(=O)[C@H](CCCNC(=N)N)NC(=O)C(C)C)C(=O)N[C@@H](CC1CCCCC1)C(=O)N[C@@H](CC1CCCCC1)C(=O)N[C@@H](CC(N)=O)C(=O)N[C@@H](CC1CC1)C(=O)NC(C)(C)C(=O)N[C@H](C(=O)N[C@@H](CCCNC(=N)N)C(=O)N[C@@H](CCC(N)=O)C(=O)N[C@@H](CCCNC(=N)N)C(=O)N[C@@H](CC1CCCCC1)C(N)=O)[C@@H](C)O
B10: Isobutanoyl-[Abu26, Cha27,36, Phe(4F)28, Aib31]-PYY(25-36) (peptide)
peptide: Isobutyryl-R[Abu][Cha][Phe(4-F)]NL[Aib]TRQR[Cha]-NH2
SMILES: CC[C@H](NC(=O)[C@H](CCCNC(=N)N)NC(=O)C(C)C)C(=O)N[C@@H](CC1CCCCC1)C(=O)N[C@@H](Cc1ccc(F)cc1)C(=O)N[C@@H](CC(N)=O)C(=O)N[C@@H](CC(C)C)C(=O)NC(C)(C)C(=O)N[C@H](C(=O)N[C@@H](CCCNC(=N)N)C(=O)N[C@@H](CCC(N)=O)C(=O)N[C@@H](CCCNC(=N)N)C(=O)N[C@@H](CC1CCCCC1)C(N)=O)[C@@H](C)O

Starred links: 1 amine or outer side, 2 acyl side, 3 side chain; linkers in the order of their positions; H or OH if unused. Non-standard residues stand in square brackets, D forms with d. *: point of attachment. Asn(Me) = N-omega-methylasparagine, CNC(=O)C[C@H](N[*:1])C(=O)[*:2]; 4‑guanidinomethylbenzoyl = N=C(N)NCc1ccc(C(=O)*)cc1; Phe(4-NH2) = Nc1ccc(C[C@H](N)C(=O)O)cc1; Phe(4-F) = N[C@@H](Cc1ccc(F)cc1)C(=O)O; Cyclohexanecarbonyl = O=C(C1CCCCC1)*; Ala(cPr) = N[C@@H](CC1CC1)C(=O)O; tBuAla = CC(C)(C)C[C@H](N)C(=O)O; 3Pal = N[C@@H](Cc1cccnc1)C(=O)O; 4Pal = N[C@@H](Cc1ccncc1)C(=O)O; Cha = N[C@@H](CC1CCCCC1)C(=O)O; Isobutyryl = CC(C)C(=O)*; Nle = CCCC[C@H](N)C(=O)O; Abu = CC[C@H](N)C(=O)O; Aib = CC(C)(N)C(=O)O; Bz = O=C(c1ccccc1)*

Data on 10 molecules can be found in patent US20120172293A1 (Takeda / Millennium, published 2012).

One assay deals with human Y2 receptor (human) (UniProt P49146). Briefly: cell-based or functional assay.
human Y2 receptor (human), sequence (P49146 whole entry): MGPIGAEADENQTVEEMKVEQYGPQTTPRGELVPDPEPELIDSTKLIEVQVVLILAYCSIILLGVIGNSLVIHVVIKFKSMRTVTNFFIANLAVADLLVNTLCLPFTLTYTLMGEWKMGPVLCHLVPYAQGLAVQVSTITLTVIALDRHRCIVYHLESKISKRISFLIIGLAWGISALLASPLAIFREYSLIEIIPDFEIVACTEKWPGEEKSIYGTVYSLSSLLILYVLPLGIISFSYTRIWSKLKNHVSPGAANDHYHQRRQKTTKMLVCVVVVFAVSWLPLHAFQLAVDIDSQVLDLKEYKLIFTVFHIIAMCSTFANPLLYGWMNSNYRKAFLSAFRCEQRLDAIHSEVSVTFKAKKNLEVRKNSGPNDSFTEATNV
Regarding B1, the GBA EC50 Ratio (vs PYY(3-36)), [35S]GTPγS is 19.
On the same count and under the same terms, for B2 the value was 33; for B3, 23.
As to B4, the GBA EC50 Ratio (vs PYY(3-36)), [35S]GTPγS was determined as 4.5.
On the same count and under the same terms, for B5 the value was 6.6; for B6, 37; for B7, 26.
With B8, the GBA EC50 Ratio (vs PYY(3-36)), [35S]GTPγS stood at 22.
In the case of B9, the GBA EC50 Ratio (vs PYY(3-36)), [35S]GTPγS is 12.
Same read-out and setting: to B10 belongs 20.

The next assay shares this target. As to the kind of experiment: RBA: [125I]-PYY displacement, hY2R/CHO membranes.
As for B1, the IC50 Ratio (vs PYY(3-36)) was 25.
Take B2: the IC50 Ratio (vs PYY(3-36)) came to 50.
On the same count and under the same terms, for B3 the value was 15.
Same read-out and setting: to B4 belongs 7.2; to B5, 12; to B6, 76.
Turning to B7, the IC50 Ratio (vs PYY(3-36)) was determined as 51.
Still for that read-out and setting: to B8 belongs 26; to B9, 17.
Still for that read-out and setting: for B10 the value was 23.
